Laboratory results taken from patent US20250171562A1.
Residue numbers refer to the chain shown, from its start. In names and notes the source's numbering stands. Each block holds one binder with its values, some of them ahead of it.

Molecular target: mixture of three Der p 2 specific recombinant human IgE clones H10, H12, P4E (human) (UniProt P01854)
Test: RBL-SX38 IgE displacement, FACS

mixture of three Der p 2 specific recombinant human IgE clones H10, H12, P4E (human), sequence (P01854 other isoform, or with tags, fused parts or gaps): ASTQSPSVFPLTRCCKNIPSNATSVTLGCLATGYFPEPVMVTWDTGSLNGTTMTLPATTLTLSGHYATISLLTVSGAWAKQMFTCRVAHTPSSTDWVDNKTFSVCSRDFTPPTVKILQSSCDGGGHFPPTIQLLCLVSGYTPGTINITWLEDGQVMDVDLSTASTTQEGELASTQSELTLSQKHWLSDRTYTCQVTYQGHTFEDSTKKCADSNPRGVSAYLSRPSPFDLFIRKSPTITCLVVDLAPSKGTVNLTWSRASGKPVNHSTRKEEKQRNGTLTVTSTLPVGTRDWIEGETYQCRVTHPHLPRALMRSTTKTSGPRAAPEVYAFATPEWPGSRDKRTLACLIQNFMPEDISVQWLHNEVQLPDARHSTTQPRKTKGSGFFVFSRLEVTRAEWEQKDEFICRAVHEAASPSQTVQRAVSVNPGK

Max effect/effect 1 µM: 19%
B1: CIgE4A1A1(GS)2 (Fc fusion)
chain 1: GPPCPPCPAPEFLGGPSVFLFPPKPKDTLMISRTPEVTCVVVDVSQEDPEVQFNWYVDGVEVHNAKTKPREEQFNSTYRVVSVLTVLHQDWLNGKEYKCKVSNKGLPSSIEKTISKAKGQPREPQVYTLPPCQEEMTKNQVSLWCLVKGFYPSDIAVEWESNGQPENNYKTTPPVLDSDGSFFLYSRLTVDKSRWQEGNVFSCSVMHEALHNHYTQKSLSLSLGKGGGGSGGGGSEVQLLESGGGLVQPGGSLRLSCAASGFTFGNYDMAWVRQAPGKRPEWVSSIDTGGDITHYADSVKGRFTISRDNAKNTLYLQMNSLRPEDTAVYWCATDEEYALGPNEFDYYGQGTLVTVSS
chain 2: B1 chain 1 with Y127C, C132S, W144S, L146A, Y185V

Max effect/effect 1 µM: 45%
B2: NIgG4A1A1(RS) (Fc fusion)
chain 1: EVQLLESGGGLVQPGGSLRLSCAASGFTFGNYDMAWVRQAPGKRPEWVSSIDTGGDITHYADSVKGRFTISRDNAKNTLYLQMNSLRPEDTAVYWCATDEEYALGPNEFDYYGQGTLVTVSSRSGPPCPPCPAPEFLGGPSVFLFPPKPKDTLMISRTPEVTCVVVDVSQEDPEVQFNWYVDGVEVHNAKTKPREEQFNSTYRVVSVLTVLHQDWLNGKEYKCKVSNKGLPSSIEKTISKAKGQPREPQVYTLPPCQEEMTKNQVSLWCLVKGFYPSDIAVEWESNGQPENNYKTTPPVLDSDGSFFLYSRLTVDKSRWQEGNVFSCSVMHEALHNHYTQKSLSLSLGK
chain 2: B2 chain 1 with Y251C, C256S, W268S, L270A, Y309V

Max effect/effect 1 µM: 7%
B3: CIgE4A1A1(GS)1 (Fc fusion)
chain 1: GPPCPPCPAPEFLGGPSVFLFPPKPKDTLMISRTPEVTCVVVDVSQEDPEVQFNWYVDGVEVHNAKTKPREEQFNSTYRVVSVLTVLHQDWLNGKEYKCKVSNKGLPSSIEKTISKAKGQPREPQVYTLPPCQEEMTKNQVSLWCLVKGFYPSDIAVEWESNGQPENNYKTTPPVLDSDGSFFLYSRLTVDKSRWQEGNVFSCSVMHEALHNHYTQKSLSLSLGKGGGGSEVQLLESGGGLVQPGGSLRLSCAASGFTFGNYDMAWVRQAPGKRPEWVSSIDTGGDITHYADSVKGRFTISRDNAKNTLYLQMNSLRPEDTAVYWCATDEEYALGPNEFDYYGQGTLVTVSS
chain 2: B3 chain 1 with Y127C, C132S, W144S, L146A, Y185V

Max effect/effect 1 µM: 44%
B4: NIgG4A1A1(G4S)1 (Fc fusion)
chain 1: EVQLLESGGGLVQPGGSLRLSCAASGFTFGNYDMAWVRQAPGKRPEWVSSIDTGGDITHYADSVKGRFTISRDNAKNTLYLQMNSLRPEDTAVYWCATDEEYALGPNEFDYYGQGTLVTVSSGGGGSGPPCPPCPAPEFLGGPSVFLFPPKPKDTLMISRTPEVTCVVVDVSQEDPEVQFNWYVDGVEVHNAKTKPREEQFNSTYRVVSVLTVLHQDWLNGKEYKCKVSNKGLPSSIEKTISKAKGQPREPQVYTLPPCQEEMTKNQVSLWCLVKGFYPSDIAVEWESNGQPENNYKTTPPVLDSDGSFFLYSRLTVDKSRWQEGNVFSCSVMHEALHNHYTQKSLSLSLGK
chain 2: B4 chain 1 with Y254C, C259S, W271S, L273A, Y312V

Max effect/effect 1 µM: 11%
B5: CIgG4A1A1(RS) (Fc fusion)
chain 1: GPPCPPCPAPEFLGGPSVFLFPPKPKDTLMISRTPEVTCVVVDVSQEDPEVQFNWYVDGVEVHNAKTKPREEQFNSTYRVVSVLTVLHQDWLNGKEYKCKVSNKGLPSSIEKTISKAKGQPREPQVYTLPPCQEEMTKNQVSLWCLVKGFYPSDIAVEWESNGQPENNYKTTPPVLDSDGSFFLYSRLTVDKSRWQEGNVFSCSVMHEALHNHYTQKSLSLSLGKRSEVQLLESGGGLVQPGGSLRLSCAASGFTFGNYDMAWVRQAPGKRPEWVSSIDTGGDITHYADSVKGRFTISRDNAKNTLYLQMNSLRPEDTAVYWCATDEEYALGPNEFDYYGQGTLVTVSS
chain 2: B5 chain 1 with Y127C, C132S, W144S, L146A, Y185V

Max effect/effect 1 µM: 36%
B6: NIgG4A1A1(G4S)2 (Fc fusion)
chain 1: EVQLLESGGGLVQPGGSLRLSCAASGFTFGNYDMAWVRQAPGKRPEWVSSIDTGGDITHYADSVKGRFTISRDNAKNTLYLQMNSLRPEDTAVYWCATDEEYALGPNEFDYYGQGTLVTVSSGGGGSGGGGSGPPCPPCPAPEFLGGPSVFLFPPKPKDTLMISRTPEVTCVVVDVSQEDPEVQFNWYVDGVEVHNAKTKPREEQFNSTYRVVSVLTVLHQDWLNGKEYKCKVSNKGLPSSIEKTISKAKGQPREPQVYTLPPCQEEMTKNQVSLWCLVKGFYPSDIAVEWESNGQPENNYKTTPPVLDSDGSFFLYSRLTVDKSRWQEGNVFSCSVMHEALHNHYTQKSLSLSLGK
chain 2: B6 chain 1 with Y259C, C264S, W276S, L278A, Y317V

EC50: 2.6 nM | Max effect/effect 1 µM: 99%
B7: NIgG4B1A1(G4S)3 (Fc fusion)
chain 1: QVQLQESGGGLVQTGGSLRLSCAVHGRTFSNTGMGWFRQAPGNERQFVAIISPSGTSTYYADSVKGRFTISRDPAKNTVYLQMNSLKMDDTAVYYCAASYGSNWSTLRHQRRNEYDAWGQGTQVAVSGGGGSGGGGSGGGGSGPPCPPCPAPEFLGGPSVFLFPPKPKDTLMISRTPEVTCVVVDVSQEDPEVQFNWYVDGVEVHNAKTKPREEQFNSTYRVVSVLTVLHQDWLNGKEYKCKVSNKGLPSSIEKTISKAKGQPREPQVYTLPPCQEEMTKNQVSLWCLVKGFYPSDIAVEWESNGQPENNYKTTPPVLDSDGSFFLYSRLTVDKSRWQEGNVFSCSVMHEALHNHYTQKSLSLSLGK
chain 2: EVQLLESGGGLVQPGGSLRLSCAASGFTFGNYDMAWVRQAPGKRPEWVSSIDTGGDITHYADSVKGRFTISRDNAKNTLYLQMNSLRPEDTAVYWCATDEEYALGPNEFDYYGQGTLVTVSSGGGGSGGGGSGGGGSGPPCPPCPAPEFLGGPSVFLFPPKPKDTLMISRTPEVTCVVVDVSQEDPEVQFNWYVDGVEVHNAKTKPREEQFNSTYRVVSVLTVLHQDWLNGKEYKCKVSNKGLPSSIEKTISKAKGQPREPQVCTLPPSQEEMTKNQVSLSCAVKGFYPSDIAVEWESNGQPENNYKTTPPVLDSDGSFFLVSRLTVDKSRWQEGNVFSCSVMHEALHNHYTQKSLSLSLGK

Max effect/effect 1 µM: 40%
B8: NIgG4A1A1(G4S)3 (Fc fusion)
chain 1: B7 chain 2 with C264Y, S269C, S281W, A283L, V322Y
chain 2: B7 chain 2
